Laboratory results as given in patent US20140256613A1 (BOARD OF REGENTS OF THE UNIVERSITY OF OKLAHOMA, published 2014).
Primed or numbered codes have the meaning given here. No end group written: not given here. FITC′ = fluorescein isothiocyanate; Ahx = NCCCCCC(=O)O

Tests used:
[1] = biological target: T1, recombinant human TLR4-MD2 protein (R&D Systems) (human, UniProt O00206 24-631; Q9Y6Y9 17-160); experiment: fluorescence polarization, 2 µM FITC-SPA4 peptide with increasing recombinant TLR4-MD2, one-site binding fit, one representative experiment
T1 construct: range 24-631;range 17-160; Bought protein, described as a mixture of recombinant human TLR4 and MD2 proteins expressed in NS0 cells; also called recombinant-TLR4-MD2 protein; soluble recombinant TLR4-MD2
Method: The background fluorescence polarization values were subtracted and plotted. The binding plot was then fitted into a one-site binding model using standard regression analysis and Kd values were noted. Results are from one representative experiment out of a total of three separate experiments performed at different times.
Regression analysis was carried out using the Graphpad Prism program (Graphpad software, La Zolla, Calif.). Experimental data were curve-fitted using Graphpad Prism program, and the binding affinity (Kd) was determined.

[2] = biological target: T1, recombinant human TLR4-MD2 protein (R&D …); experiment: fluorescence polarization, 2 µM FITC-SPA4 with 0-5.6 µM TLR4-MD2, one-site fit, average Kd with blank subtraction; with blank subtraction
Method: (§1) Experimental data were curve-fitted using Graphpad Prism program, and the binding affinity (Kd) was determined.
(§2) Lower values of the Kd indicate strong binding affinity.

[3] = biological target: T1, recombinant human TLR4-MD2 protein (R&D …); experiment: fluorescence polarization, 2 µM FITC-SPA4 with 0-5.6 µM TLR4-MD2, one-site fit, average Kd without blank subtraction; without blank subtraction
Method: as §1, §2

T1 sequence (O00206 other isoform, or with tags, fused parts or gaps limits assumed, form in doubt, chain 1 of 2): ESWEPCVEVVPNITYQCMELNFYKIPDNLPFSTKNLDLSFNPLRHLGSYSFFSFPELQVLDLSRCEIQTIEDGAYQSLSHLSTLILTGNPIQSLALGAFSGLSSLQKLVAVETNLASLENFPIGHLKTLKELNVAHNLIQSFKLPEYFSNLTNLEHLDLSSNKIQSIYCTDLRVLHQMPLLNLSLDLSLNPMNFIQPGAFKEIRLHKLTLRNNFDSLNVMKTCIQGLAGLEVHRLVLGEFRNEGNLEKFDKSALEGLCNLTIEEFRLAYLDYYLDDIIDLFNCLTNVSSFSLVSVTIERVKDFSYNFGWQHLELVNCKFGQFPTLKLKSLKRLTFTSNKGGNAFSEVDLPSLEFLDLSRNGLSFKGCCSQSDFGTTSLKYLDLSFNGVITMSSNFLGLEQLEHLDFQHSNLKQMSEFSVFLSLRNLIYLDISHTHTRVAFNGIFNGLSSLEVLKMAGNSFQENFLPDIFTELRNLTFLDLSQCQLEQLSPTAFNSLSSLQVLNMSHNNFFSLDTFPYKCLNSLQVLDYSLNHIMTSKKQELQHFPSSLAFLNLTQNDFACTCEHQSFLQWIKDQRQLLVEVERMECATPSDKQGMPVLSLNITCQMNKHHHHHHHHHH
T1 sequence (Q9Y6Y9 other isoform, or with tags, fused parts or gaps limits assumed, form in doubt, chain 2 of 2): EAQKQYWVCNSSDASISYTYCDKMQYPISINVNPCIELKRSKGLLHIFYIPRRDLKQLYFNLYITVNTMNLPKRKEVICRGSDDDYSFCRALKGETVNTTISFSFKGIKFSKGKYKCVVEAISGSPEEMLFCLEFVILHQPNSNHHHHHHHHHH

- Kd [1]: 314 nM
- Kd [2]: 407 nM
- Kd [3]: 255 nM
B1: FITC-SPA4 peptide (peptide)
peptide: {FITC′-Ahx}-GDFRYSDGTPVNYTNWYRGE
notes: also called fluorescein isothiocyanate conjugated SPA4 peptide
